Key:
[1] = biological target: preformed complex PARP2-QFRD_Alexa488 + Nuc165 (human) (UniProt Q9UGN5); test: FRET or BRET; Alexa647-labeled HPF1 (acceptor) titrated from 18.5 μM to 0 μM into 1 μM Alexa488-labeled PARP2 (donor) alone or into the preformed PARP2–Nuc165 complex (1 μM / 100 nM); 50 mM Tris-HCl pH 8, 50 mM NaCl, 1 mM MgCl2, 0.1 mM EDTA, 0.1 mM TCEP, 0.01% NP-40; Hill model
[2] = biological target: preformed complex PARP2-WT_Alexa488 + Nuc165 (human) (UniProt Q9UGN5); test: as above

Chain of Alexa647-labeled HPF1 (Q9NWY4 whole entry): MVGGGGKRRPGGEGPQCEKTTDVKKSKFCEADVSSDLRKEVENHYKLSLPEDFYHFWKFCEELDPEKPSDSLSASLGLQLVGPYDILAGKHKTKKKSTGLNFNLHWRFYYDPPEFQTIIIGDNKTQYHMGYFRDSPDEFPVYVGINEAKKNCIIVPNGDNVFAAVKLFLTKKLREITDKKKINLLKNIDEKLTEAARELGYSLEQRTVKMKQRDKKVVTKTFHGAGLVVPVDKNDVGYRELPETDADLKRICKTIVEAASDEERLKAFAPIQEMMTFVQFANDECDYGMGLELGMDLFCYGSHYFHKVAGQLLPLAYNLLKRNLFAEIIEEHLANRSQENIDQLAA

Kd [1]: 702 nM
Kd [2]: 279 nM
Substance: Alexa647-labeled HPF1 (from UniProt Q9NWY4 1-346) (natural protein)
